Molecular target: Amyloid-beta(1-42) Aβ(1-42) (Homo sapiens, UniProt P05067)
Experiment: BLI

Row | Binder | Kd [µM]
1 | RPITRLRTHQNR [DB3] | 75
2 | RPITRLRTHQNRRPITRLRTHQNR [DB3DB3] | 1

From paper PMC4841555 (2016)
